Molecular target: chimeric avidin mutant A/A2-B I109K
Assay: SDS-PAGE stability assay; 55 µM acetylated protein in pH 7 buffer, with or without biotin-5-fluorescein, 20 min at 20-100°C, sample buffer without SDS, 15% gel; control boiled with 2% SDS and 0.5% β-mercaptoethanol

chimeric avidin mutant A/A2-B I109K showed a stoichiometry N of 4.
